The target in this assay is T1, transformation/transcription domain-associated protein (TRRAP) (human (endogenous in K562), UniProt Q9Y4A5 1-3859).
T1 construct: transformation/transcription domain-associated protein (TRRAP), human; also called TRRAP module; source: endogenous, K562 extract; co-purified with tagged EP400 constructs
As to the kind of experiment: cryo-EM structure; TRRAP-EP400Cter purified by the tagged EP400 truncation 2188-3159, glutaraldehyde cross-linked; 3.4 Å. Conditions: both partners purified.

T1 sequence (Q9Y4A5 whole entry, the tested form may be a part): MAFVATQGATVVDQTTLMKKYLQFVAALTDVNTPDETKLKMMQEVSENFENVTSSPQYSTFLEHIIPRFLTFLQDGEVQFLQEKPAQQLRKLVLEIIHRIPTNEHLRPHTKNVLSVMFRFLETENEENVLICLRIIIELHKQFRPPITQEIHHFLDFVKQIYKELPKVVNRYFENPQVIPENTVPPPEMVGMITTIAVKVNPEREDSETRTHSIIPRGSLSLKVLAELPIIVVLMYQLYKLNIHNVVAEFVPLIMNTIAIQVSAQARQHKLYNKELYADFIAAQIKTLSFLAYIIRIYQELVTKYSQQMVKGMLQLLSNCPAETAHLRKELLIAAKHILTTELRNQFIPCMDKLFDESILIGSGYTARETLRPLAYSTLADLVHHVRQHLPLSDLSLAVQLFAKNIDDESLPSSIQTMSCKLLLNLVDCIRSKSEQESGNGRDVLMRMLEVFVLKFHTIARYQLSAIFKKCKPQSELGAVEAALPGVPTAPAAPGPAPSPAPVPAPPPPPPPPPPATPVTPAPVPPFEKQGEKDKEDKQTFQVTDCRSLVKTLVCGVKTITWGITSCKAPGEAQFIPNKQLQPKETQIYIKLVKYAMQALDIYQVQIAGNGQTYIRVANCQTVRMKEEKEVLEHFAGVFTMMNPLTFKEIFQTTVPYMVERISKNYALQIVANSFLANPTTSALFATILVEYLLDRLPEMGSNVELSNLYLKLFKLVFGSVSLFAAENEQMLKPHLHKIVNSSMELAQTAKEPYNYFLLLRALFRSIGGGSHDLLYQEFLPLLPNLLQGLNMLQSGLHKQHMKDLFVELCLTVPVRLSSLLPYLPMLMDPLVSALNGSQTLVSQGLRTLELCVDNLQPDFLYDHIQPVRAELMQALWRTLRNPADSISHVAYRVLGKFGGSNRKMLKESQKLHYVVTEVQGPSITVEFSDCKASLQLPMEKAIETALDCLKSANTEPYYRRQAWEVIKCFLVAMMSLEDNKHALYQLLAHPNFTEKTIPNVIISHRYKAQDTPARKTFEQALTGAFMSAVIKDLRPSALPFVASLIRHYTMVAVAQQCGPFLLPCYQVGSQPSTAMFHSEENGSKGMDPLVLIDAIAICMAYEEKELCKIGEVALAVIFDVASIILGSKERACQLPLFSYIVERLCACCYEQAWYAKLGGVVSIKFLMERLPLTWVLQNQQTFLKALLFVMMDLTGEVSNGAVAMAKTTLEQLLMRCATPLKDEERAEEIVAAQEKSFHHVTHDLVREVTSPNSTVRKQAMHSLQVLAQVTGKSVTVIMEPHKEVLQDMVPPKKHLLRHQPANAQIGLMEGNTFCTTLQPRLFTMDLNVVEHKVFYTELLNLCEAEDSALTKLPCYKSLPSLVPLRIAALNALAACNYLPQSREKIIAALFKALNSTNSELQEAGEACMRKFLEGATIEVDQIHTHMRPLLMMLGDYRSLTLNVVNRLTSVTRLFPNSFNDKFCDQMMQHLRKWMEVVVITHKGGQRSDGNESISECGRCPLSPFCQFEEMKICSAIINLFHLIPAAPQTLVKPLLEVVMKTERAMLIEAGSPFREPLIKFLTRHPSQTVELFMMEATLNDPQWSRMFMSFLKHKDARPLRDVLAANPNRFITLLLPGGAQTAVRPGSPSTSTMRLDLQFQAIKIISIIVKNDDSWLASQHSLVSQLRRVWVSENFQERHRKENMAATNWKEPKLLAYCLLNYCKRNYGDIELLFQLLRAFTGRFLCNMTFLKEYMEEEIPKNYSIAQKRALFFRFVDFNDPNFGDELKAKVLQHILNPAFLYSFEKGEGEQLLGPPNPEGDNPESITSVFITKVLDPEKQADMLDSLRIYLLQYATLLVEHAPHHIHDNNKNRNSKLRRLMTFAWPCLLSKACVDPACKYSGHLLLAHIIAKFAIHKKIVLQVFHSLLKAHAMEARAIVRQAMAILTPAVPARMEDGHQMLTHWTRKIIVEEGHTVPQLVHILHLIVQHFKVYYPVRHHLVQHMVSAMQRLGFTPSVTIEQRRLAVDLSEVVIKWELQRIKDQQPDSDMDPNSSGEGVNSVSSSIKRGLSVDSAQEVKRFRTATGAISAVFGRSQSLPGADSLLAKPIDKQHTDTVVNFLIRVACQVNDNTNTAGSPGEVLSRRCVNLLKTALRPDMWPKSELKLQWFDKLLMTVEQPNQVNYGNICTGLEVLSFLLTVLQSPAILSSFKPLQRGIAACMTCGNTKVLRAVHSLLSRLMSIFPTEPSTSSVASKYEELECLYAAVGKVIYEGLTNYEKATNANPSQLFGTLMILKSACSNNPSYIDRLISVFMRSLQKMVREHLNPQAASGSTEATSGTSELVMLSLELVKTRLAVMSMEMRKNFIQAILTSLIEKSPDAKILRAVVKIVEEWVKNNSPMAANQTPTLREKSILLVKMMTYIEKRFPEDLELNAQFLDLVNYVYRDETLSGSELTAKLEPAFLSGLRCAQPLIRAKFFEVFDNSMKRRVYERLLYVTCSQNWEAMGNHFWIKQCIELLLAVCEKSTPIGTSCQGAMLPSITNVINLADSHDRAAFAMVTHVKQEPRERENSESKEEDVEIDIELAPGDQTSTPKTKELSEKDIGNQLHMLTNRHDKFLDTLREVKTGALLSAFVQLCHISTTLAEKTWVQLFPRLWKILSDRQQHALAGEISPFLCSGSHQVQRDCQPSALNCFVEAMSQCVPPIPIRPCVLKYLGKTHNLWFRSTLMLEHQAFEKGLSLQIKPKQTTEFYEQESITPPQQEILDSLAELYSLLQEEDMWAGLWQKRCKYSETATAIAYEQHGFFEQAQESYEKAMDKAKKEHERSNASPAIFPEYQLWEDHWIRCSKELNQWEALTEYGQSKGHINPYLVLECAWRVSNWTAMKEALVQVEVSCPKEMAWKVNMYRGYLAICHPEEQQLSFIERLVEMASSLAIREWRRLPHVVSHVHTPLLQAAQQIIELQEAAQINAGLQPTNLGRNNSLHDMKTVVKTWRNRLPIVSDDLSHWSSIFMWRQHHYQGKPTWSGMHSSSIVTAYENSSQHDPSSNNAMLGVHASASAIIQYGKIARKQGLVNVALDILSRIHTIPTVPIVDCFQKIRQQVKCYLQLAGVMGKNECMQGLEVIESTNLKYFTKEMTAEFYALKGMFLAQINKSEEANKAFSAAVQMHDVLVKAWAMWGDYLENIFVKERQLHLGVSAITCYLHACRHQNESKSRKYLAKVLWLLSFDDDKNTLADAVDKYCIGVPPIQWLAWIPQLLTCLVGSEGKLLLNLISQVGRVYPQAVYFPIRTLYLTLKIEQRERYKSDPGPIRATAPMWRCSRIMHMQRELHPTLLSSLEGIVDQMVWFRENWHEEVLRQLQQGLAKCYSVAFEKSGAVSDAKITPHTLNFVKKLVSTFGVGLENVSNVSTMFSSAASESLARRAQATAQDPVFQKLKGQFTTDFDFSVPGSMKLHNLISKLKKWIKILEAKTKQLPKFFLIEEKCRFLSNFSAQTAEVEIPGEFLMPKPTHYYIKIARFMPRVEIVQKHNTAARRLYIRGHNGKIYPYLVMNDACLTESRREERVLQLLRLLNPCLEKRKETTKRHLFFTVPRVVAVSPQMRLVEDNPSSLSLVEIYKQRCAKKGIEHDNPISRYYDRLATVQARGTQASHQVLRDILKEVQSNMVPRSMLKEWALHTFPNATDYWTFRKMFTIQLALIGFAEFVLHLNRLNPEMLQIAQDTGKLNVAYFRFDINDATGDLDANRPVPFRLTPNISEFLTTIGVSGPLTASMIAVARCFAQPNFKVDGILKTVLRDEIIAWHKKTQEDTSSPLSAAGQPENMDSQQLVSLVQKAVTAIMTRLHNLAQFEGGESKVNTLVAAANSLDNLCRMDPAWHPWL

B1: tagged truncation of EP400 containing just the C terminus after the ATPase domain (amino acid 2188 to 3159) (domain or fragment, human, UniProt Q96L91 2188-3159, looked up)
chain: AVMTAVRAWEFWNLKTLQEREARLRLEQEEAELLTYTREDAYSMEYVYEDVDGQTEVMPLWTPPTPPQDDSDIYLDSVMCLMYEATPIPEAKLPPVYVRKERKRHKTDPSAAGRKKKQRHGEAVVPPRSLFDRATPGLLKIRREGKEQKKNILLKQQVPFAKPLPTFAKPTAEPGQDNPEWLISEDWALLQAVKQLLELPLNLTIVSPAHTPNWDLVSDVVNSCSRIYRSSKQCRNRYENVIIPREEGKSKNNRPLRTSQIYAQDENATHTQLYTSHFDLMKMTAGKRSPPIKPLLGMNPFQKNPKHASVLAESGINYDKPLPPIQVASLRAERIAKEKKALADQQKAQQPAVAQPPPPQPQPPPPPQQPPPPLPQPQAAGSQPPAGPPAVQPQPQPQPQTQPQPVQAPAKAQPAITTGGSAAVLAGTIKTSVTGTSMPTGAVSGNVIVNTIAGVPAATFQSINKRLASPVAPGALTTPGGSAPAQVVHTQPPPRAVGSPATATPDLVSMATTQGVRAVTSVTASAVVTTNLTPVQTPARSLVPQVSQATGVQLPGKTITPAHFQLLRQQQQQQQQQQQQQQQQQQQQQQQQQQQQQTTTTSQVQVPQIQGQAQSPAQIKAVGKLTPEHLIKMQKQKLQMPPQPPPPQAQSAPPQPTAQVQVQTSQPPQQQSPQLTTVTAPRPGALLTGTTVANLQVARLTRVPTSQLQAQGQMQTQAPQPAQVALAKPPVVSVPAAVVSSPGVTTLPMNVAGISVAIGQPQKAAGQTVVAQPVHMQQLLKLKQQAVQQQKAIQPQAAQGPAAVQQKITAQQITTPGAQQKVAYAAQPALKTQFLTTPISQAQKLAGAQQVQTQIQVAKLPQVVQQQTPVASIQQVASASQQASPQTVALTQATAAGQQVQMIPAVTATAQVVQQKLIQQQVVTTASAPLQTPGAPNPAQVPASSDSPSQQPKLQMRVPAVRLKTPTKPPCQ
notes: 137 residues (SANT and HD domains) are resolved; also called EP400Cter; C-terminal segment of EP400; source: new cell line expressing the tagged truncation
Take B1: the binding result is listed as “binds”.
